The target of series [1] is N. meningitidis α-2,3-sialyltransferase (Neisseria meningitidis serogroup B, UniProt P72097). Kind of series: Coupled sialylation of FCHASE-LacNAc with Neu5Ac, Neu5Pr or Neu5Gc and CMP-Neu5Ac synthetase. The class given is biochemical. On the set-up: made in house; host or cells: E. coli BMH71-18/pNST-18. To be noted: for time to complete conversion of the acceptor (FCHASE-LacNAc): coupled reaction with CMP-Neu5Ac synthetase; for use as alternate donor, rate: compared with Neu5Ac. On the procedure:
Sialylation of FCHASE-thio-N-acetyllactosamine with N-acetyl-, N-propionyl and N-glycolyl-Neuraminic Acid--The 50 μL reaction mixtures included […] acceptor, and 2 mM of either Neu5Ac, Neu5Gc or Neu5Pr, in 100 mM Tris pH 7.5. 0.2 mM DTT, 10 mM MgCl2, […], with 50 mU inorganic pyrophosphatase (Sigma). 47 mU CMP-Neu5Ac synthetase, 5 mU purified α-2,3-sialyl-transferase. […] The masses of the sialylated products were measured in the negative ion mode on a VG Quattro triple quadrupole mass spectrometer (Fisons Instruments).

The test system of series [2] is CC(=O)N[C@H]1[C@H](O[C@@H]([C@H](O)[C@H](CNc2cc(S(=O)(=O)O)c3ccc4c(S(=O)(=O)O)cc(S(=O)(=O)O)c5ccc2c3c54)NC(C)=O)[C@H](O)CO)O[C@H](CO)[C@@H](O[C@@H]2O[C@H](CO)[C@H](O)[C@H](O)[C@H]2O)[C@@H]1O. Kind of series: Determination of kinetic constants with APTS-labelled acceptors. It counts as biochemical, Neisseria meningitidis. The settings on record: other: apparent; APTS-labelled acceptor, CMP-Neu5Ac 200 μM, room temperature. On the procedure: (§1) Measurement of Sialyltransferase Activity and Survey of Oligosaccharide Acceptors--FCHASE-labelled oligosaccharides were prepared as described above, while the APTS-labelled oligosaccharides were prepared by reductive amination of reducing saccharides according to the method described by Guttman et at. (Anal. Biochem233:234 (1996)) The Gal-β-APTS acceptor was derived from labelling of lactose; the Gal-α-APTS acceptor was derived from labelling of melibiose; the N-acetyllactosamine (LacNAc) acceptor was synthesized by APTS labelling of chitobiose, followed by enzymatic modification with bovine β-Galactosyl transferase to produce the LacNAc moiety-, the Gal-α-1.4-Gal-β acceptor was enzymatically synthesized from β-Gal-APTS with the α-1,4-galactosyltransferase from N. meningitidis. All of the reductive amination products were purified by gel permeation chromatography on Toyopearl HW4OF (Sigma-Aldrich), 1.5 cm×15 cm column, using water as the eluant. It should be mentioned that all of these molecules have the terminal reducing sugar ring opened in the process of labelling. APTS-saccharides were quantitated by measuring the A455, and using an extinction coefficient of 17160 M^-1 cm^-1 . The TMR-labelled oligosaccharides were prepared as described by Zhao et al. (1994) Glycobiology 4:239-242. For the TMR labelled acceptors we used an extinction coefficient of 80,000 M^-1 cm^-1 for quantitation. The sialyltransferase activity was routinely measured using 0.5 mM FCHASE-N-acetyllactosamine as the acceptor and the assay conditions as described above. For measurement of Km, and kcat values, assays were performed with the APTS labelled saccharides at room temperature. Assays were monitored so that for all acceptor concentrations, no more than 10% conversion to product occurred. The ranges of acceptor and donor concentrations were determined empirically, then a range spanning 0.2Km, up to 5Km, was used to obtain the values. Data were examined using the Grafit™3.0 software package (Erithacus Software, London, UK).
(§2) The reaction mixtures from the FCHASE- and APTS-labelled acceptors were analyzed by capillary electrophoresis performed with a Beckman instruments (Fullerton, Calif.) P/ACE 5510 equipped with a 3 mW Argon-ion laser induced fluorescence detector, λ excitation=488 nm λ emission=520 nm. The Capillary was of bare silica 75 μ X 57 cm, with the detector at 50 cm. The capillary was conditioned before each run by washing with 0.2 M NaOH for 2 min., water for 2 min., and either 20 mM sodium phosphate buffer, pH 7.4 or sodium tetraborate, pH 9.3, 2 min. Samples were introduced by pressure injection for 2-5 seconds, and the separation was performed at 18 kV, 75 μA. Peak integration was performed with the Beckman PACE-Station software (version 1).

The subject of series [3] is CC(=O)N[C@H]1[C@H](O[C@H]2[C@@H](O)[C@@H](CO)O[C@@H](O[C@@H]([C@H](O)[C@@H](O)CNc3cc(S(=O)(=O)O)c4ccc5c(S(=O)(=O)O)cc(S(=O)(=O)O)c6ccc3c4c65)[C@H](O)CO)[C@@H]2O)O[C@H](CO)[C@@H](O)[C@@H]1O[C@@H]1O[C@H](CO)[C@H](O)[C@H](O)[C@H]1O. The description is as above. The settings on record: other: apparent; APTS-labelled acceptor, CMP-Neu5Ac 200 μM, room temperature. It counts as biochemical, Neisseria meningitidis. The method, then:
as §1, §2

In series [4] the test system is CC(=O)N[C@H]1[C@H](O[C@H]2[C@@H](O)[C@@H](CO)O[C@@H](O[C@@H]([C@H](O)[C@@H](O)CNc3cc(S(=O)(=O)O)c4ccc5c(S(=O)(=O)O)cc(S(=O)(=O)O)c6ccc3c4c65)[C@H](O)CO)[C@@H]2O)O[C@H](CO)[C@@H](O[C@@H]2O[C@H](CO)[C@H](O)[C@H](O)[C@H]2O)[C@@H]1O. The series is described as above. It counts as biochemical, Neisseria meningitidis. The settings on record: other: apparent; APTS-labelled acceptor, CMP-Neu5Ac 200 μM, room temperature. On the procedure: as §1, §2

For series [5], the system named is CC(=O)N[C@H]1[C@H]([C@H](O)[C@H](O)CO)O[C@](OP(=O)(O)OC[C@H]2O[C@@H](n3ccc(N)nc3=O)[C@H](O)[C@@H]2O)(C(=O)O)C[C@@H]1O. The series is described as above. The class given is biochemical, Neisseria meningitidis. The settings on record: other: acceptor LacNAc-APTS (0.8 mM) or lacto-N-neotetraose-APTS (0.2 mM). The method, then: as §1, §2
Series [6] relates to O=S(=O)(O)c1cc(NC[C@H](O)[C@@H](O)[C@H](O[C@@H]2O[C@H](CO)[C@H](O)[C@H](O)[C@H]2O)[C@H](O)CO)c2ccc3c(S(=O)(=O)O)cc(S(=O)(=O)O)c4ccc1c2c34. The series is described as above. The settings on record: other: apparent; APTS-labelled acceptor, CMP-Neu5Ac 200 μM, room temperature. It counts as biochemical, Neisseria meningitidis. On the procedure: as §1, §2
Series [7] deals with O=S(=O)(O)c1cc(NC[C@H](O)[C@@H](O)[C@H](O[C@@H]2O[C@H](CO)[C@H](O[C@H]3O[C@H](CO)[C@H](O)[C@H](O)[C@H]3O)[C@H](O)[C@H]2O)[C@H](O)CO)c2ccc3c(S(=O)(=O)O)cc(S(=O)(=O)O)c4ccc1c2c34. The description is as above. The class given is biochemical, Neisseria meningitidis. The settings on record: other: apparent; APTS-labelled acceptor, CMP-Neu5Ac 200 μM, room temperature. On the procedure:
as §1, §2

The target in series [8] is T1, purified recombinant α-2,3-sialyltransferase (Neisseria meningitidis serogroup B, UniProt P72097).
T1 construct: made in house; host or cells: E. coli BMH71-18/pNST-18
Kind of series: Survey of oligosaccharide acceptors (qualitative, CE or TLC). The class given is biochemical. The method, then:
Measurement of Sialyltransferase Activity and Survey of Oligosaccharide Acceptors--FCHASE-labelled oligosaccharides were prepared as described above, while the APTS-labelled oligosaccharides were prepared by reductive amination of reducing saccharides according to the method described by Guttman et at. […] APTS-saccharides were quantitated by measuring the A455, and using an extinction coefficient of 17160 M^-1 cm^-1 . […] For the TMR labelled acceptors we used an extinction coefficient of 80,000 M^-1 cm^-1 for quantitation. The sialyltransferase activity was routinely measured using 0.5 mM FCHASE-N-acetyllactosamine as the acceptor and the assay conditions as described above. […] Assays were monitored so that for all acceptor concentrations, no more than 10% conversion to product occurred. The ranges of acceptor and donor concentrations were determined empirically, then a range spanning 0.2Km, up to 5Km, was used to obtain the values. […]
The reaction mixtures from the FCHASE- and APTS-labelled acceptors were analyzed by capillary electrophoresis performed with a Beckman instruments (Fullerton, Calif.) P/ACE 5510 equipped with a 3 mW Argon-ion laser induced fluorescence detector, λ excitation=488 nm λ emission=520 nm. […]

N. meningitidis α-2,3-sialyltransferase, sequence (P72097 2-371): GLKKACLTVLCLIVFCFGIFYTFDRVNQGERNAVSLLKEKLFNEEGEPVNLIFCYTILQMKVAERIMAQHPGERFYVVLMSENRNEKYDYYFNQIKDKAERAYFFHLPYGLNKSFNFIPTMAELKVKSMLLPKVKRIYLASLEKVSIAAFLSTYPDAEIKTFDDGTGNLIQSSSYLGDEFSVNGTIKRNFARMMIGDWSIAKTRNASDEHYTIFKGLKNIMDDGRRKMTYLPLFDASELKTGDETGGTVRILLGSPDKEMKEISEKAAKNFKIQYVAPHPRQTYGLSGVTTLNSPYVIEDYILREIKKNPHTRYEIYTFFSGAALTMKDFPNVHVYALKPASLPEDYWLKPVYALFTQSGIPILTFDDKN
T1 sequence (P72097 2-371): as above

`CC(=O)N[C@H]1[C@H]([C@H](O)[C@H](O)CO)OC(O)(C(=O)O)C[C@@H]1O` (some centres unmarked) [Neu5Ac, 5-N-acetylneuraminic acid]: the “time to complete conversion of the acceptor (FCHASE-LacNAc)” value in series [1] is listed as 60 min.

Regarding `CCC(=O)N[C@H]1[C@H]([C@H](O)[C@H](O)CO)OC(O)(C(=O)O)C[C@@H]1O` (some centres unmarked) [Neu5Pr, N-propionyl-Neuraminic Acid], in series [1], the “use as alternate donor, rate” value is “rates lower than with Neu5Ac” and the “time to complete conversion of the acceptor (FCHASE-LacNAc)” value is recorded as 90 min.

For “purified recombinant α-2,3-sialyltransferase (Neisseria meningitidis MC58)”, the Km in series [2] stood at 67 µM; in series [3], 113 µM; in series [4], 42 µM; in series [5], 20 µM; in series [6], 168 µM; in series [7], 139 µM. Moreover, the kcat in series [2] is 0.118 s⁻¹; in series [3] it was 0.0383 s⁻¹; in series [6], 0.0633 s⁻¹; in series [7], 0.013 s⁻¹.

On to `CC(=O)N[C@@H]1[C@@H](O)[C@H](O[C@@H]2O[C@H](CO)[C@H](O)[C@H](O)[C@H]2O)[C@@H](CO)O[C@H]1SCCCCCCNC(=O)CCCCCNC(=O)c1ccc(-c2c3ccc(=O)cc-3oc3cc(O)ccc23)c(C(=O)O)c1` [Gal-β-(1→4)-GlcNAc-β S AH-FCHASE], for which, in series [8], the “product formation with sulfur as the linkage atom” value is recorded as “product formation”.

As for `O=C(CO)N[C@H]1[C@H]([C@H](O)[C@H](O)CO)OC(O)(C(=O)O)C[C@@H]1O` (some centres unmarked) [Neu5Gc, 5-N-glcolylneuraminic acid], the “conversion of the acceptor” value in series [1] (after 120 min of incubation) is recorded as “above 90%”. In addition, the “use as alternate donor, rate” value in series [1] is given as “rates lower than with Neu5Ac”.

Consider `O=C(CCCCCNC(=O)c1ccc(-c2c3ccc(=O)cc-3oc3cc(O)ccc23)c(C(=O)O)c1)NCCCCCCS[C@@H]1O[C@H](CO)[C@H](O)[C@H](O)[C@H]1O` [Gal-β S AH-FCHASE], for which, in series [8], the “product formation with sulfur as the linkage atom” value was “product formation”.

One may read the Km as the substrate concentration at which the rate is half of its maximum. In general, kcat refers to the maximal rate divided by the concentration of active sites.

For the origin of these results see US6096529A, “Recombinant α-2,3-sialyltransferases and their uses” (priority 1997, dated 2000).
